1 variant from IntAct's records for PubMed 17167415 can be followed below.

B1: DNA replication regulator SLD3 (Saccharomyces cerevisiae), P53135 (parent)
chain: METWEVIASVKEATKGLDLSLDHPLIIKSEDVPSNILQLLQQKNRRQLKHICMKSRKEYFLLEEYGPGFWVKWPYNYFNGYSLPERRTEVVTTVERERAKRETLKTWDELKFKELLHLWSEEPKGSCKLEKDKDLKLDMNPPDMKGESKINDYYSDPKEYIESKYYDALFSIHTPLAYFVKSNLVRLKNTCRTKYGSDSYKIAYQAMLQKFLLSIVQFKDRHDNRLLLEPFSSPIADEKRKNCLTKFVIQDENKNSSTIADLCVVLKSREIKLQILLLLEIIGLNDLDWNFRDFEKKYKLKLKKRSLNLTKKGLVRRRSKKKTSEKDKGIERITTSLDYCEQLDLYLDRACILDILLSSETPNPDAIEASNGTIQEHKKNILDKSKEASLVGFINYVLIPYFNKKVPHAVEFIIQKLKGPSMRPKRALKKVNDSTNVSSPNTVETYNRLSTSQRASRSSIINSVPSSPALRRVDANLFSRKSIASPTPELLNSRTNSNLNEFLESETRSLKRPSQLGRTKSDLTMNHLQKRQFSVSDLSTTRVPNSSTITLKTPFSHSTINAYKTMNNSFRRVGKRKDINETIRLHERVDSEENVQVQATPAVKKRTVTPNKKAQLQSIIESPLNFKDDDTHEGRKNTSNITSTPTNKPPENSSKRRVRRRLFAPEST
partner: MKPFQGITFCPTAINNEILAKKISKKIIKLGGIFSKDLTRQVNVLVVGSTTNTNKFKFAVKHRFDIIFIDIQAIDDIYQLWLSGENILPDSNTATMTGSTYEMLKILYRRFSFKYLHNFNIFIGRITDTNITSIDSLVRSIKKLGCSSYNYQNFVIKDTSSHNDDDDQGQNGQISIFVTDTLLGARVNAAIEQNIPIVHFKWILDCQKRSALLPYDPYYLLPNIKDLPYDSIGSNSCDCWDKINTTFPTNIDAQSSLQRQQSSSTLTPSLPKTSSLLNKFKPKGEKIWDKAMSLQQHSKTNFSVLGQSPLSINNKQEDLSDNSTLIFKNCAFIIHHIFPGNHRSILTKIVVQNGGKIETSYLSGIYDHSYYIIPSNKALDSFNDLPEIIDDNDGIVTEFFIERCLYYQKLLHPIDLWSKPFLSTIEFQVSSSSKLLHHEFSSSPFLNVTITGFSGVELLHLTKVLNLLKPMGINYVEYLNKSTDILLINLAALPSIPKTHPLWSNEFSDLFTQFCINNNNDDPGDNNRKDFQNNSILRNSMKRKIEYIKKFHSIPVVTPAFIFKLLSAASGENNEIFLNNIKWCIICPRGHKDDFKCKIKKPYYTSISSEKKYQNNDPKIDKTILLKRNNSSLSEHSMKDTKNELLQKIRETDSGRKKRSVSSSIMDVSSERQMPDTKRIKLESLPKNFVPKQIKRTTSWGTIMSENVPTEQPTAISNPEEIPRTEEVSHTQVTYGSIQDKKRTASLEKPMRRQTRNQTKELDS

The variants in the assay derive from B1. The settings on record: with dpb11_yeast DPB11, P47027.
Consider T600A;S622A, for which the “effect of a mutation on the interaction” value is listed as “disrupting interaction strength”.
